According to the supplement of paper PMC7877785:
± gives the uncertainty stated by the source.

Experiment: self-splicing fitness, log relative to wild type (ln ratio); higher = more splicing; Tetrahymena group I intron in knt gene, E. coli kanamycin selection, DiMSum; sequences stand for … in CUCUCU…GGAGGGAAAAGUUAUCAGGCAUGCACCUGGUAGCUAGUCUUUAAACCAAUAGAUUGCAUCGGUUUAAAAGGCAAGACCGUCAAAUUGCGGGAAAGGGGUCAACAGCCGUUCAGUACCAAGUCUCAGGGGAAACUUUGAGAUGGCCUUGCAAAGGGUAUGGUAAUAAGCUGACGGACAUGGUCCUAACCACGCAGCCAAGUCCUAAGUCAACAGAUCUUCUGUUGAUAUGGAUGCAGUUCACAGACUAAAUGUCGGUCGGGGAAGAUGUAUUCUUCUCAUAAGAUAUAGUCGGACCUCUCCUUAAUGGGAGCUAGCGGAUGAAGUGAUGCAACACUGGAGCCGCUGGGAACUAAUUUGUAUGCGAAAGUAUAUUGAUUAGUUUUGGAGUACUCGUGGUCG
In short: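 Library with all eight P1ex-region intron nucleotides randomised, intron inside the knt kanamycin-resistance gene on pET-22b(+), in E. coli BL21(DE3). Cells grew overnight at 37°C or 30°C on LB agar with or without 25 μg/mL kanamycin (plus 100 μg/mL carbenicillin, 50 μM IPTG, 0.2% rhamnose), in six replicate transformations. Pooled colonies were amplicon-sequenced on Illumina HiSeq 2500. DiMSum fitness is the error-weighted combination of wild-type-normalised replicate fold changes, kanamycin versus none.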

Sequence | self-splicing fitness (ln) (30 °C) | self-splicing fitness (ln) (37 °C)
CACUAGCAAUAUUACGCAUG | -1.95 ± 0.13 | -1.75 ± 0.21
CUGCAGCAAUAUUACGGCAA | -0.665 ± 0.094 | 0.202 ± 0.088
GGCUAGCAAUAUUACGCCAU | -2.23 ± 0.22 | 
UUUAAGCAAUAUUACGUAAG | -0.0425 ± 0.074 | 0.296 ± 0.094
CAGGAGCAAUAUUACGUGUC | -3.59 ± 0.21 | -3.03 ± 0.18
UGGAAGCAAUAUUACGACGA | 0.0371 ± 0.18 | -0.862 ± 0.15
AACUAGCAAUAUUACGCCGC | -2.1 ± 0.23 | 
ACGCAGCAAUAUUACGUAUA | -2.65 ± 0.14 | -2.54 ± 0.13
GCGCAGCAAUAUUACGGAGA | -4.36 ± 0.42 | -1.69 ± 0.19
UUGUAGCAAUAUUACGUUCA | -1.07 ± 0.11 | -0.717 ± 0.13
AAGAAGCAAUAUUACGAGCG | -0.646 ± 0.14 | -0.754 ± 0.2
AAUUAGCAAUAUUACGGCUC | -0.532 ± 0.14 | 0.0268 ± 0.16
CAAGAGCAAUAUUACGGACA | -3.46 ± 0.26 | -2 ± 0.32
CCUUAGCAAUAUUACGAGCA | -2.64 ± 0.22 | -3.17 ± 0.33
CGACAGCAAUAUUACGCCGC |  | -1.74 ± 0.36
ACCCAGCAAUAUUACGAACA | -0.802 ± 0.11 | -1.35 ± 0.13
GGUUAGCAAUAUUACGAGUA | -4.51 ± 0.46 | -1.58 ± 0.2
UGCAAGCAAUAUUACGUAAC | -4.96 ± 0.38 | -0.276 ± 0.14
UGCGAGCAAUAUUACGCUUC | -3.96 ± 0.39 | -3.67 ± 0.39
CUUCAGCAAUAUUACGUCGA | -4.35 ± 0.46 | -2.95 ± 0.3
AAAGAGCAAUAUUACGGUCU | -2.5 ± 0.13 | -1.76 ± 0.14
UCCUAGCAAUAUUACGCUUA | -2.77 ± 0.23 | -3.22 ± 0.35

Sequence | self-splicing fitness (ln) (30 °C) | self-splicing fitness (ln) (37 °C)
GACCAGCAAUAUUACGCUGA | -1.04 ± 0.11 | -0.811 ± 0.097
AUAGAGCAAUAUUACGUAGU | -1.69 ± 0.12 | -0.153 ± 0.15
AUUGAGCAAUAUUACGCGGC | -3.26 ± 0.38 | 
GAACAGCAAUAUUACGGAAA | -2.42 ± 0.16 | -1.12 ± 0.14
GUUAAGCAAUAUUACGAAAG | -1.91 ± 0.14 | -1.5 ± 0.22
CGUCAGCAAUAUUACGUUGU | -3.9 ± 0.23 | -2.12 ± 0.18
GUGUAGCAAUAUUACGACCA | -1.47 ± 0.28 | -0.121 ± 0.43
UUAAAGCAAUAUUACGAUUA | 0.6 ± 0.089 | 0.448 ± 0.097
CUUCAGCAAUAUUACGGCUA | -3.01 ± 0.2 | -2.06 ± 0.24
UCAGAGCAAUAUUACGUUUG | -4.06 ± 0.24 | -2.36 ± 0.26
GACAAGCAAUAUUACGCCUC | -2.68 ± 0.14 | -2.78 ± 0.28
UAGAAGCAAUAUUACGCCUG | -0.128 ± 0.091 | 0.251 ± 0.12
GACGAGCAAUAUUACGAUCC | -0.986 ± 0.21 | -0.739 ± 0.4
GCGUAGCAAUAUUACGUUGA | -3.16 ± 0.33 | -1.94 ± 0.21
CCUAAGCAAUAUUACGCCUC | -2.59 ± 0.36 | 
AGCAAGCAAUAUUACGGGGU | -2.45 ± 0.15 | -2 ± 0.12
GCGAAGCAAUAUUACGGUUG | -1.54 ± 0.11 | -1.9 ± 0.15
AUGUAGCAAUAUUACGAUAG | -2.48 ± 0.19 | -2.67 ± 0.27
AGCCAGCAAUAUUACGCAUC | -3.75 ± 0.2 | -3.03 ± 0.17
GUUGAGCAAUAUUACGGGCG | -2.38 ± 0.18 | -1.58 ± 0.25
UAGUAGCAAUAUUACGGCAU | -2.2 ± 0.15 | -0.67 ± 0.16
GGCGAGCAAUAUUACGAAAA |  | -2.97 ± 0.47
